# T1: HA-tagged PHLPP1 N-terminal extension (PHLPP1 NTE), residues 1-512 (UniProt O60346 1-512)
# T1 construct: PH domain Leucine-rich repeat Protein Phosphatase 1 (PHLPP1), N-terminal extension, residues 1-512 of the 1717-residue protein; also called HA-NTE; pCDNA3 HA PHLPP1 NTE-WT; source: HEK-293T, transfected, in lysate; not shown: HA, N-terminal, kept
# T1 sequence (looked up): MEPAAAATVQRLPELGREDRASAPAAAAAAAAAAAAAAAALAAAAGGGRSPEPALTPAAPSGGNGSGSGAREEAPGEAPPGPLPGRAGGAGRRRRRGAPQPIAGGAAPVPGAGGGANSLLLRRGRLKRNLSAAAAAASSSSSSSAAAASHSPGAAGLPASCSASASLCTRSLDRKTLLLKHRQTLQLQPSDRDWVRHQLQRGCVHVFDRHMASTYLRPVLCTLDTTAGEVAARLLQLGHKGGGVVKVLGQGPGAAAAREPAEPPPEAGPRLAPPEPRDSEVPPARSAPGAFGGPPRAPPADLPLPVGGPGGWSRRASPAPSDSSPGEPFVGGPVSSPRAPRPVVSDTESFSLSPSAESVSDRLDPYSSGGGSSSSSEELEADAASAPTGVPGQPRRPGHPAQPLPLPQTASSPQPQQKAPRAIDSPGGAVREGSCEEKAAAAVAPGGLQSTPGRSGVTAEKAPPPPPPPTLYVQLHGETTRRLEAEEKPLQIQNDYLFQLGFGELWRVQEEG
# B1: GFP-STAT1 (natural protein, UniProt P42224 1-750, looked up)
# chain: MSQWYELQQLDSKFLEQVHQLYDDSFPMEIRQYLAQWLEKQDWEHAANDVSFATIRFHDLLSQLDDQYSRFSLENNFLLQHNIRKSKRNLQDNFQEDPIQMSMIIYSCLKEERKILENAQRFNQAQSGNIQSTVMLDKQKELDSKVRNVKDKVMCIEHEIKSLEDLQDEYDFKCKTLQNREHETNGVAKSDQKQEQLLLKKMYLMLDNKRKEVVHKIIELLNVTELTQNALINDELVEWKRRQQSACIGGPPNACLDQLQNWFTIVAESLQQVRQQLKKLEELEQKYTYEHDPITKNKQVLWDRTFSLFQQLIQSSFVVERQPCMPTHPQRPLVLKTGVQFTVKLRLLVKLQELNYNLKVKVLFDKDVNERNTVKGFRKFNILGTHTKVMNMEESTNGSLAAEFRHLQLKEQKNAGTRTNEGPLIVTEELHSLSFETQLCQPGLVIDLETTSLPVVVISNVSQLPSGWASILWYNMLVAEPRNLSFFLTPPCARWAQLSEVLSWQFSSVTKRGLNVDQLNMLGEKLLGPNASPDGLIPWTRFCKENINDKNFPFWLWIESILELIKKHLLPLWNDGCIMGFISKERERALLKDQQPGTFLLRFSESSREGAITFTWVERSQNGGEPDFHAVEPYTKKELSAVTFPDIIRNYKVMAAENIPENPLKYLYPNIDKDHAFGKYYSRPKEAPEPMELDGPKGTGYIKTELISVSEVHPSRLQTTDNLLPMSPEEFDEVSRIVGSVEFDSMMNTV
# notes: STAT1, detected in the co-IP by its GFP tag; the methods give no source or limits for it; source: HEK-293T, transfected, in lysate
# Target: T1, HA-tagged PHLPP1 N-terminal extension …
# Assay: co-IP; HEK-293T cells transfected with HA-tagged PHLPP1 constructs and GFP-STAT1; detergent-solubilized lysates incubated with anti-HA antibody at 4°C overnight, protein A/G agarose 1 hr at 4°C, washed three times in lysis buffer with 0.3 M NaCl and 0.1% Triton X 100; blot probed with GFP antibody; GFP-STAT1 IP divided by HA IP, normalized to HA-NTE IP, three independent experiments
# Conditions: partners not purified
binder,measurement,value
B1,fold binding against PHLPP1 lacking the NTE,~26 fold
same,fold binding against full-length PHLPP1,~5 fold

# — article PMC6692130, “PHLPP1 counter-regulates STAT1-mediated inflammatory signaling” (eLife, 2019)
